From patent publication US20210371467A1 come the findings set out here.

In test [1] the target is Npu^C-CFN (Nostoc puminciforme PCC73102 (Npu)). Nature of the test: cell-based or functional assay.
The target in test [2] is Ssp^C A136S-CFN (Synechocystis Species PCC6803 (Ssp)). In words: cell-based or functional assay.

Chain of Npu^C-CFN (Nostoc puminciforme PCC73102 (Npu)) (chain, as listed by the source): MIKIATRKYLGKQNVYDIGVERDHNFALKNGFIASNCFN

In test [1], “Npu^N (AEY-Npu^N, product of plasmid 2 after cleavage of the His6-SUMO tag)” yielded a protein trans-splicing half-life (t1/2) at 30° C., in vitro PTS assay of 50 s. Further, in test [2], the rate of branch resolution is 2 fold.
